{
  "source": "patent US20210071162A1",
  "about": "(CENTRE NATIONAL DE LA RECHERCHE SCIENTIFIQUE, published 2021)",
  "proteins": {"B1": {"name": "PhTET4 (enzyme)", "chain": "MERIVKILREILEIPSPTGYTKEVMSYLEKFLKENEVNFYYTNKGALIAGNHPKPELVVIAHVDTLGAMVKEILPDGHLAFSRIGGLVLPTFEGEYCTIITRKGKKFRGTLLLRNPSAHVNREVGKKERKEENMYIRLDELVEKREDTEKLGIRPGDFIAFDPKFEYVNGFVKSHFLDDKASVAAILDLIIDMKDELEKYPVAFFFSPYEEVGHGGSAGYPPTTKELLVVDMGVVGEGVSGKETAVSIAAKDTTGPYDYDMTNRLIELAEENNIPYVVDVFPYYGSDGSAALRAGWDFRVALIGPGVHASHGMERTHVKGLLATKELIRAYIKWKG", "notes": "also called TET protein; protein encoded by PH0737 gene"}},
  "key": {"[1]": {"target": "T1, GLM", "T1 chain": "GLM"}, "[2]": {"target": "T2, LGG", "T2 chain": "LGG"}, "[3]": {"target": "T3, GMDSLAFSGGL", "T3 chain": "GMDSLAFSGGL"}, "[4]": {"target": "T4, Gly-Gly-pNA", "T4 chain": "GG"}, "[5]": {"target": "the molecule itself", "assay": "self-assembly of PhTET4 subunits; size-exclusion chromatography and negative stain electron microscopy", "method": "After the size exclusion chromatography step, 4 μl of PhTET4 at 0.05 mg/ml were deposited onto carbon-coated 400-mesh copper grids. The samples were stained using uranyl acetate 2% and air-dried. Images were taken under low-dose conditions in a T12FEI electron microscope working at 120 kV and with a nominal magnification of 40,000 using an Orius SC1000 CCD camera.\nThe three-dimensional structure of PhTET4 was assessed by producing the recombinant PhTET4 in E. coll. The cellular extract was clarified by heat shock precipitation and the recombinant protein was purified by ion-exchange and size-exclusion chromatographies. […] The dimensions and the shape of PhTET4 are analogous to the three P. horikoshii tetrahedral TET edifices: PhTET1, PhTET2 and PhTET3."}},
  "data": [
    {"protein": "B1", "values": [
      {"measurement": "cleavage of the N-terminal residue of the peptide (reverse phase HPLC, N-terminal sequencing of products)", "setting": "[1]", "result": "PhTET4 does not exert amidolytic activity beyond the N-ter glycine in a peptide context"},
      {"measurement": "cleavage of the N-terminal residue of the peptide (reverse phase HPLC, N-terminal sequencing of products)", "setting": "[2]", "result": "no enzymatic activity was detected against peptide that do not start by glycine residue even if a glycine residue is present at P1′ position as demonstrated with the LGG tripeptide"},
      {"measurement": "cleavage of the N-terminal residue of the peptide (reverse phase HPLC, N-terminal sequencing of products)", "setting": "[3]", "result": "PhTET4 does not exert amidolytic activity beyond the N-ter glycine in a peptide context"},
      {"measurement": "enzymatic activity against the chromogenic peptide (released pNA), relative to Gly-pNA", "setting": "[4]", "result": "PhTET4 displayed significant activity against this substrate, corresponding to 10% of the total activity exhibited in presence of monoacyl compound Gly-pNA"},
      {"measurement": "binding result", "setting": "[5]", "result": "binds"}
    ]}
  ]
}
